Data set [1] has as its system SR8D8 expressing transporter. The experiment in a line: Mixed sugar fermentation at industrially relevant sugar concentrations. It counts as cell-based, S. cerevisiae. Particulars: 7% glucose and 4% xylose (70 g/L, 40 g/L). The method, then:
(§1) For flask fermentation, a single colony was inoculated to 5 or 25 mL YPE ([…], 1% w/v yeast extract, 2% peptone, 5% ethanol) supplemented with 200 μg/ml of geneticin to obtain seed cultures. […] Flask fermentations were maintained at 30° C. and 250 rpm.

Substrate in data set [2]: OC[C@H]1OC(O)[C@H](O)[C@@H](O)[C@@H]1O
The experiment in a line: cells, lysate or membranes. Particulars: other: initial glucose uptake (5 s), 30° C., pH 6.5, 0.2 to 100 mM glucose, ± SEM in Table 1.

Data set [3] deals with SR8D8 expressing transporter. Nature of the data set: Transporter screening for growth on glucose or xylose (Bioscreen C). To be noted: glucose or xylose containing medium, OD600. It counts as cell-based, S. cerevisiae. The method, then: ScGal2 expressing SR8D8 were used as a positive control (FIG. 3). Most of the AtSWEETs and putative oleaginous transporters expressing strains were not able to grow on glucose or xylose.
(§2) A xylose fermenting S. cerevisiae yeast (SR8) with HXT1-7Δ, GAL2Δ deletions was used for transporter screening and characterization (SR8D8). SR8D8 was grown in YPE medium/plate (10 g/L yeast extract, 20 g/L peptone, and 5 g/L ethanol). […] SRD8 strains transformed with plasmid containing KanMX marker conferring resistance to G418 (geneticin) were propagated on YPE supplemented with 200 μg/ml of geneticin. For growth and flask fermentation experiments all media was supplemented with 200 μg/ml of geneticin for plasmid maintenance. Biomass was calculated from the OD600 measured using a Biomate 5 UV-visible spectrophotometer (Fisher, NY, USA). All growth rates were measured using a Bioscreen C plate reader system (Growth Curves USA, Piscataway, NJ, USA). A 2 μL inoculum of fully grown culture was added into 200 μL YP (+200 μg/ml Geneticin) with varying concentrations of different sugars. A wide band filter (420-580 nm) was used to measure optical density. Bioscreen C values represent mean value from three biological replicates. In all cases, the Bioscreen C was set to maintain a temperature of 30° C. and high aeration through high continuous shaking.

For data set [4], the system named is transporter-overexpressing SR8D8. Nature of the data set: Inhibition of xylose uptake by glucose. To be noted: 25 mM or 100 mM glucose. Format: cell-based, S. cerevisiae. As to the method:
SR8D8 containing the respective plasmid was grown on selective YPE medium to an OD600 of 1-1.5, harvested by centrifugation, and washed twice in ice-cold uptake buffer (100 mM potassium phosphate, pH 6.5). C14 labeled sugar uptake assay was done according to Boles and Oreb. Radioactivity was analyzed in a Beckman-Coulter LS6500 multi-purpose liquid scintillation counter (Beckman-Coulter, CA, USA).
Sugar solutions contained 0.135-0.608 μCi of D-[U-^14C]-glucose (290-300 mCi/mmol) or D-[1-^14C]-xylose (55 mCi/mmol) (PerkinElmer, MA, USA). Calculation of Km (Michaelis constant), Vmax (maximal initial uptake velocity), and K (inhibitor constant for competitive inhibition) was done by nonlinear regression analysis and global curve fitting in Prism 7 (GraphPad Software) with values of three independent measurements.

Data set [5] has as its system SR8D8 expressing transporter. Nature of the data set: Glucose and xylose mixed sugar flask fermentation (20 g/L each). It counts as cell-based, S. cerevisiae. To be noted: 20 g/L of glucose and xylose, YP medium. As to the method:
as §1, §2

The subject of data set [6] is SR8D8 expressing transporter. The experiment in a line: Sole glucose or xylose flask fermentation. Format: cell-based, S. cerevisiae. Particulars: glucose or xylose conditions, YP medium. As to the method:
as §1, §2

Where “and” joins values, the source holds several entries; their conditions need not be identical. Equal values may be shown once. Entries after “also recorded” stand apart in the source; their conditions may differ.

B1: Arabidopsis thaliana AtSWEET7 transporter, wild type (Table 2: SEQ ID NO: 3; FIG. 12: SEQ ID NO:2) (Arabidopsis thaliana) (protein)
chain: MVFAHLNLLRKIVGIIGNFIALCLFLSPTPTFVRIVKKKSVEEYSPIPYLATLINCLVWVLYGLPTVHPDSTLVITINGTGILIEIVFLTIFFVYCGRQKQRLIISAVIAAETAFIAILAVLVLTLQHTTEKRTMSVGIVCCVFNVMMYASPLSVMKMVIKTKSVEFMPFWLSVAGFLNAGVWTIYALMPFDPFMAIPNGIGCLFGLAQLILYGAYYKSTKRIMAERENQPGYVGLSSAIARTGSEKTANTNQEPNNV
One may read the Km as the substrate concentration at which the rate is half of its maximum. As to B1, the “mixed sugar utilization profile at high sugar” value in data set [1] was “co-consumption of glucose and xylose even at higher glucose concentrations”. In addition, the Km in data set [2] is 75 mM and 74.1 ± 13.0 mM. Besides, the “growth / transport capacity on glucose or xylose” value is “substantial growth on xylose and glucose; also recorded: both glucose and xylose transport capacity” in data set [3]; “capable of sustaining an efficient growth on glucose or xylose” in data set [3] (listed as SWEET7). Also, in data set [4], the “inhibition of xylose transport by glucose (in words)” value was “do not have any xylose transport inhibition in the presence of both 25 mM and 100 mM glucose”. The “glucose and xylose mixed sugar fermentation phenotype” value is “simultaneous co-consumption of glucose and xylose with almost the same rates of sugar consumption; also recorded: true co-fermentation phenotype” in data set [5]; “simultaneously utilize glucose and xylose” in data set [5] (listed as SWEET7). Moreover, the “sole sugar fermentation performance” value in data set [6] is “enabled glucose and xylose fermentation, depleting all provided sugars”.

B2: LST1_205437: Lipomyces starkeyi LST1 transporter polypeptide, SEQ ID NO:4, GenBank ODQ75362.1 (protein)
chain: MGFLGFLNRSQASEPVEKESTATTPSEGRTPQRPLSPAVGVPLEQDFETQLSAKDAPLLAFILGGVASVGGFMFGYQTGQISGFLEMSDFKTRFAACNSQTGQCTFSAARQGTIVGLFSIGTLIGSLIAAPIADRIGRRLTISFWAFFFMIGTVLEISSSHVWVQFAMGRFVGGLGIGALSVVVPMYQSESTPRMIRGVIVSSYQLMVTLGIWLAYMINWGTESLQGSQSWRITNGMSFLWALVLGIAILGLPESPRYAYRVGREEEARKNMARLYKLSPNHPIINLEIQEIQEKLDAERVGGDHPWYEIFTGPRMLYRTILGMVLQAGQQLTGANYFFYYGTTVFSATGLSNSYVTQIILGSVNVGGTIAGLWLIENCGRRKALMGGAAWMFMCFMVFAFVGHFSLDHQNPEATPQAGAALVVFSCLFIIAFAMTWGPIVWAIVGELYPARYRATCMGLATSSNWLFNFLIGFFTTFITGDIDYLYGLVFAGCCFALFFIVYFFVIETKGRSLEEIDTMYVLHVNPINSAKWDSSQLMRDGDGLVNTDDLYLEAGGNRFAKDEHSAHEMIPSHDENAPGPSHTSHADIEKAESSGAESRDAL
modifications: Lipomyces starkeyi LST1_204537 transporter polypeptide
Consider B2, for which the “mixed sugar utilization profile at high sugar” value in data set [1] was “partial xylose and glucose co-consumption”. Moreover, the “growth / transport capacity on glucose or xylose” value in data set [3] was “substantial growth on xylose and glucose; also recorded: capable of sustaining an efficient growth on glucose or xylose”. The “inhibition of xylose transport by glucose (in words)” value in data set [4] is “partial inhibition of xylose uptake by glucose”. Further, the “glucose and xylose mixed sugar fermentation phenotype” value in data set [5] is “co-consumption of glucose and xylose; also recorded: partial co-fermentation; also recorded: simultaneously utilize glucose and xylose”. In addition, the “sole sugar fermentation performance” value in data set [6] was “enabled glucose and xylose fermentation, depleting all provided sugars”.

Values taken from patent publication US12686846B2, “Plant sweet and yeast MSF transporter capable of transporting different sugars simultaneously” (THE BOARD OF TRUSTEES OF THE UNIVERSITY OF ILLINOIS, priority 2020, dated 2026).
